B1: 196A12B10 (antibody, V domains shown)
VH: QIQWVQSGPELKKPRETVKISCKASGYTFTDYSMHWVKQAPGKGLKWMGWINSETGEATYADDFRGRFALSLETSATTAFLQINSLKNEDTGTYFCARFYYGNSFASWGQGTTLTVSS
VL: DIVMTQFPSSLTVTAGEKVTMTCKSSQSLLNGGNQKNYLTWYQQKPGLPPKLLIYWASTRESGVPDRFTGSGSGTEFTLTISSVQAEDLAVYYCQNNYYFPLTFGAGTKLELK
notes: mouse hybridoma mAb; also called 196Al2B10
B2: 185F2G12 (antibody, V domains shown)
VH: QAYLQQSGAELVRSGASVKMSCKASGYTFTSYNMHWVRQTPGQGLEWIGYIYPGNGGTNYSQKFKGKASLTADTSSTTAYMQISSLTSEDSAVYFCATGRGFAYWGQGTLVTVSA
VL: DIVMTQSPSSLTVTAGEKVTLSCKSSQSLFNTGNQKNYLTWYQQKPGQPPKLLIFRASTRESGVPDRFTGSGFGTDFTLTISSVQAEDLAVYYCQNDFSYPLTFGAGTKLELK
notes: mouse hybridoma mAb
B3: 248E6A7 (antibody, V domains shown)
VH: QAYLQQSGAELVRSGASVKMSCRASGYTFTSHNMHWVKQTPGQGLEWIGYIYPGNGNTYYNQKFKVKATLTADTSSNTAYMQINSLTSEDSAVYFCVRDYYGNSFVYWGQGTLVTVSA
VL: DVVMTQSPSSLTEKTGEKVTMTCKSSQSLLNSGNQKNYLAWYQQKPGQPPKLLIYWASTRESGVPDRFIGSGSGTDFTLTISSLQTEDLAVYYCQNNYMYPFTFGAGTKLELK
notes: mouse hybridoma mAb
B4: 234A10F7 (antibody, V domains shown)
VH: QVQLQQSGAELVKPGASVKLSCKASGYTFTSFGINWLRQRPEQGLEWIGWIFPGDGNSKYNENFKGKATLTTDKSSSTAYMQLTRLTSEDSAVYFCARFYYGNSFAYWGQGTLVTVSA
VL: DIVMTQSPSSLTVTTGQKVTMSCKSSQSLLNSGNQKNYLTWYQQKPGQPPKLLIYWAATRESGVPDRFTGSGSGTDFTLTISSVQAEDLAVYYCQNDYFYPFTFGAGTKLELK
notes: mouse hybridoma mAb
B5: 232F1E4 (antibody, V domains shown)
VH: QVQLKESGPGLVAPSQSLSITCTVSGFALTTYGVSWVRQPPGKGLEWLGVIWGDGSTHYHSALISRLSIRKDNSKSQVFLKLNSLQTDDTATYYCAKPGRGNAMDYWGQGTSVTVSS
VL: DIVMSQSPSSLTVTAGEKVTMSCKSSQSLLNSGNQKNYLTWYQQKPGQSPKLLIYWASTRESGVPDRFTGSGSGTDFTLTISSMQAEDLAVYYCQNDYIYPLTFGAGTMLELK
notes: mouse hybridoma mAb
B6: 231C11E9 (antibody, V domains shown)
VH: EVMLVESGGGLVKPGGSLKLSCAASGFTFNNYVMCWVRQTPEKRLEWVATISSGNFYTYYPDSVKGRFTISRDNAKNTLYLQMSSLRSEDTAIYYCASLGRGNALDNWGQGTSVTVSS
VL: DIVMTQSPASLTVTAKEKVTMSCRSSQSLLNSGNQKNYLTWYQQKPGQPPKLLIYWASTRESGVPDRFTGSGSGTDFTLTISSVQAEDLAVYYCQNDYSYPFTFGSGTKLEIK
notes: mouse hybridoma mAb
B7: 248G8E8 (antibody, V domains shown)
VH: QVQLKESGPGLVAPSQSLSITCTVSGFSLTTYGVSWVRQPPGKGLEWLGVIWGDGSTNYHSTLISRLRISKDKSKSQVFLKLNSLQTDDTATYYCAKAGRGNALDYWGQGTSVTVSS
VL: DIVLTQSPSSLTVTAGEKVTMSCKSSQSLLNSGNQKNYLTWYQQKPGQPPKLLIYWASTRESGVPDRFTGSGSGTDFTLTISSVQAEDLAVYYCQNDYSFPLTFGAGTKLELK
notes: mouse hybridoma mAb
B8: 203A6D5 (antibody, V domains shown)
VH: QVQLKQSGPGLVQPSQSLSITCTVSGFSLTRYGVHWVRQSPGKGLEWLGVIWSGGNTDYNAAFISRLNIRKDNSKSQVFFKMNSLKPNDTAIYYCARAAYFGNSFDYWGQGTTLTVSS
VL: DIVMTQSPSSLPVTAGEKVTMSCKSSQSLLNSGNQKNYLTWYQQKPGQPPKLLIYWASTRDSGVPDRFTGSGSGTDFTLTISSVQAEDLAVYYCQNNYIYPLTFGAGTKLELK
notes: mouse hybridoma mAb
B9: 186G12H3 (antibody, V domains shown)
VH: EVMLVESGGGLVKPGGSLKLSCAASRFTLSSYAMSWVRQTPEKRLEWVATISSGGSYTYYFDSVKGRFTISRDTAKNTLNLQMSSLRSEDTAMYYCARLYYGNALDYWGQGTSVTVSS
VL: DIVMTQSPSSLTVTAGEKVTVSCKSSQSLLNSGNQKNYLTWYQQKPGQPPKLLIYWASTRESGVPDRFTGSGSGTDFTLTISSVQAEDLAVYYCQNNYIYPLTFGAGTTLELK
notes: mouse hybridoma mAb
B10: 262C7C10 (antibody, V domains shown)
VH: QAYLQQSGAELVRSGASVKMSCKASGYTFTNYNIHWVKQTPGQGLEWIGYIYPGNGGNYYNQKFKGKATLTADTSSITAYMQISSLTSEDSAVYFCARDYYGNSFAYWGQGTLVTVSA
VL: DIVMTQSPSSLTVTAGEKVTMNCKSSQSLLNSGNQKNYLTWYQQKPGQPPKLLIYWASTRESGVPDRFTGSGSGTDFTLTISSVQAEDLAIYYCQNDYYYPLTFGAGTKLELK
notes: mouse hybridoma mAb
B11: 253E4F7 (antibody, V domains shown)
VH: EIQLQQSGPELMKPGASVKMSCKASGYSFTSYYIHWVKQSHGKSLEWIGYIDPFNGGTRYNQKFEGKATLTVDKSSTTAYMHLSSLTSEDSTVYYCASLRFLAYWGQGTLVTVSA
VL: DIVMTQSPSSLTVTAGEKVTMTCKSSQSLLNSGNQKNYLTWYQQKPGQPPKVLISRASTRQSGVPDRFTGSGSGTDFTLTISSVQAEDLAVYYCQNDYSYPLTFGAGTKLELK
notes: mouse hybridoma mAb
B12: 234B9D4 (antibody, V domains shown)
VH: EIQLQQSGPDLMKPGSSVKISCTASGYSFTSYYIHWVKQSHGKTLEWIGYIDPFNGGTRYNQKFEGKAALTVDKSSTTAYMHLTSLTSDDSAVYYCASLRFFTYWGQGTLVTVSA
VL: DIVMTQSPSSLTVTAGEKVTMTCKSSQSLLNSGNQENYLTWYQQKPGQPPKLLISRASTRQSGVPDRFTGSGSGTDFTLTISSVQAEDLAVYYCQNDYSYPLTFGAGTKLELK
notes: mouse hybridoma mAb
B13: 237D2A4 (antibody, V domains shown)
VH: QVQLKESGPGLVAPSQSLSITCTVSGFSLTSYGVSWVRQPPGKGLEWLGVIWGDGSTNYHSTLISRLRISKDKSKSQVFLKLNSLQTDDTATYYCAKAGRGNALDYWGQGTSVTVSS
VL: DIVMTQSPSSLTVTAGEKVTMSCKSSQSLLNSGNQKNYLTWYQQKPGQPPKLLIYWASTRESGVPDRFTGSGSGTDFTLTISSVQAEDLAVYYCQNDYSFPLTFGAGTKLELK
notes: mouse hybridoma mAb
B14: 268D7H9 (antibody, V domains shown)
VH: QAYLQQSGAELVRSGASVKMSCKASGYTFTNYNIHWVKQTPGQGLEWIGYIYPGNGGNYYNQKFKGKATLTADTSSSTAYMQISSLTSEDSAVYFCARDYYGNSFAYWGQGTLVTVSA
VL: DIAMTQSPSSLTVTAGEKVTMNCKSSQSLLNSGNQKNYLTWYQQKPGQPPKLLIYWASTRESGVPDRFTGSGSGTDFTLTISSVQAEDLAIYYCQNDYYYPLTFGAGTTLELK
notes: mouse hybridoma mAb
B15: 266B11F7 (antibody, V domains shown)
VH: QVQMKESGPGLVAPSQSLSITCTVSGFSLTTYGVTWVRQPPGKGLEWLGVIWGDGSTNYHSALTSRLRISKDKSKSQVFLKLSSLQTDDTATYYCAKPGRGNALDYWGQGTSVTVSS
VL: DIVMTQSPSSLTVTAGEKVTMRCKSSQSLLNSGNQKNYLTWYQQKPGQPPKLLVYWASTRESGVPDRFTGSGSGTDFTLTVSSVQAEDLAVYYCQNDYIFPLTFGAGTKLELK
notes: mouse hybridoma mAb
B16: 263E9F3 (antibody, V domains shown)
VH: EIQVQQSGPELMKPGASVKISCRSSGYSFTSYYIHWVKQSRGKSLEWIGYIDPFSGGTRYNQKFEGKATLTVDKSSTTAYMHLSSLTSEDSAVYYCASLRFFAYWGQGTLVTVSA
VL: DIVMTQSPSSLTVTAGEKVTMTCKSSQSLLNSGNQENYLTWYQQKPGQPPELLISRASTRQSGVPDRFTGSGSGTDFTLTISSVQTEDLAVYYCQNDYSYPLTFGAGTKLELK
notes: mouse hybridoma mAb
B17: 273C10E5 (antibody, V domains shown)
VH: QVQLQQSGAELVKPGASVKLSCKASGYTFTSFGINWLRQRPEQGLEWIGWIFPGDGNSKYNENFKGKATLTTDKSSSTAYMQVTRLTSEDSAVYFCARFYYGNSFANWGQGTLVTVSA
VL: DIVMTQSPSSLTVTAGEKVTMSCKSSQSLLNSGNQKNYLTWYQQKPGQPPKLLIYWAATRESGVPDRFAGSGSGTDFTLTISSVQAEDLAVYYCQNDYFYPFTFGAGTKLELK
notes: mouse hybridoma mAb
B18: 267B2C5 (antibody, V domains shown)
VH: QVQLKESGPGLVAPSQSLAITCTVSGFSLTTYGVSWVRQPPGKGLEWLGVIWGDGSTHYHSALISRLSIRKDNSKSQVFLKVNSLQTDDTATYYCGKPGRGNAMDYWGQGTSVTVSS
VL: DIVMTQSPSSLTVTAGEKVTMSCKSSQSLLNSGNQKNYLTWYQQKPGQSPKLLIYWASTRESGVPDRFTGSGSGTDFTLTISSVQAEDLAVYYCQNDYIYPLTFGGGTTLELK
notes: mouse hybridoma mAb
B19: 240F8G2 (antibody, V domains shown)
VH: QAYLQQSGAELVRSGASVKMSCKASGYTFTNYNIHWVKQTPGQGLEWIGYIYPGNGGNYYNQKFKGKATLTADTSSSTAYMQISSLTSEDSAVYFCARDYYGNSFAYWGQGTLVTVSA
VL: DIVVTQSPSSLTVTAGEKVTMNCKSSQSLLNSGNQKNYLTWYQQKPGQPPKLLIYWASTRESGVPDRFTGSGSGTDFTLTISSVQAEDLAIYYCQNDYYYPLTFGAGTKLELK
notes: mouse hybridoma mAb
B20: 240A8E7 (antibody, V domains shown)
VH: QAYLQQSGAELVRSGASVKMSCKASGYTFTNYNIHWVKQTPGQGLEWIGYIYPGNGDNYYNQKFKGKATLTADTSSSTAYMQISSLTSEDSAVYFCARDYYGNSFAYWGQGTLVTVSA
VL: DVVMTQSPSSLTVTAGEKVTMNCKSSQSLLNSGNQKNYLTWYQQKPGQPPKMLIYWASTRESGVPDRFTGSGSGTDFTLTISSVQAEDLAIYYCQNDYYYPFTFGAGTKLELK
notes: mouse hybridoma mAb
B21: 194A2F7 (antibody, V domains shown)
VH: QIQLVQSGPELKKPGETVKISCKASGYTFTDYLIHWVKQAPGKGLKWMGWINTETGEPTYADDFKGRFALSLETSASTACLQINNLKNEDTATYFCARIYYGNSFDYWGQGTTLTVSS
VL: DIVMTQSPSSLPVTAGEKVTMTCKSSQNLLNSGNQKSYLTWYQQKPGQPPKLLIYWASTRETGVPDRFTGSGSGTDFTLTISSVQAEDLAVYYCQNAYRFPFTFGAGTRLELK
notes: mouse hybridoma mAb

As usually defined, the EC50 is the concentration that produces a half-maximal response. Read a high EC50 as weaker potency.

This assay deals with T1, human Claudin18.2 (human).
T1 construct: also called CLDN18.2
As to the kind of experiment: cell ELISA, Claudin18.2-expressing HEK293T cells. The protocol: To determine protein binding EC₅₀ by Cell ELISA, 96-well U-bottom microplates were pre-blocked with blocking buffer (5% MPBS, 1×PBS with 5% skim milk) overnight at 4° C. On the next day, the Claudin18.2-expressing HEK293T stable cell line was suspended at 1.5×10⁶ cells/ml in blocking buffer, added to the plate in 100 μl/well and incubated at room temperature for 1 hour.
Raw data were plotted with GraphPad Prism v6.02 software with four parameters, best-fit value program to analyze the EC₅₀.
(ELISA stands for enzyme-linked immunosorbent assay.)
On to B1, for which the midpoint of the response, the EC50, lay at 1.78 nM.

Molecule B2 showed an EC50 of 1.73 nM.

In the case of B3, it took 0.396 nM to reach a half-maximal effect (EC50).

As to B4, the concentration for a half-maximal effect (EC50) was found to be 0.857 nM.

For the molecule B5, it took 0.966 nM to reach a half-maximal effect (EC50).

B6 returned an EC50 of 1.91 nM.

Consider B7, for which the EC50 was determined as 0.56 nM.

In turn, B8 gave an EC50 of 1.16 nM.

Take B9: it took 2.21 nM to reach a half-maximal effect (EC50).

For B10, the half-maximal effective concentration (EC50) turned out to be 1.77 nM.

Molecule B11 displayed an EC50 of 0.611 nM.

Molecule B12 came in with an EC50 of 4.78 nM.

The molecule B13 registered a concentration for a half-maximal effect (EC50) of 1.9 nM.

The molecule B14 returned an EC50 of roughly 0.411 nM.

Molecule B15 came in with an EC50 of roughly 0.397 nM.

B16 had a 50% effective concentration (EC50) of 1.08 nM.

Molecule B17 yielded an EC50 of 0.181 nM.

B18 registered an EC50 of 0.895 nM.

As to B19, the concentration giving a half-maximal response (EC50) was 0.88 nM.

B20 showed a concentration for a half-maximal effect (EC50) of 0.646 nM.

Regarding B21, the EC50 was found to be 2.57 nM.
